The record followed here is patent US11471538B2, “Methods and pharmaceutical compositions for the treatment of cancers associated with activation of the MAPK pathway” (INSERM (Institut National de la Santé et de la Recherche …, priority 2017, dated 2022).

In one test the test system is SLITRK6 mRNA. Briefly: SLITRK6 mRNA expression by Q-PCR in BRAF-mutant melanoma cells under MAPK inhibitor treatment. It is filed as cell-based. The conditions noted are these: PLX4032 1 μM alone or with AZD6244 0.1 μM; A375, Lu1205, WM266-4, WM983B, WM35, WM115 cells; 72 h for WM35 and WM115. The protocol: FIG. 1. SLITRK6 mRNA expression is induced under MAPK inhibitor treatment in BRAF-mutant melanoma cells. A) A375, Lu1205, WM266-4 and WM983B cell lines were treated with a BRAF inhibitor (PLX4032) at 1 μM alone or in combination with a 0.1 μM MEK inhibitor (AZD6244). mRNA fold increase relative to the DMSO control is determined by Q-PCR. The results are presented as the mean±SD of the average of 3 independent experiments. *** p<0.001; T-test. B) BRAF-mutant melanoma cells lines WM35 and WM115 were treated with a BRAF inhibitor (PLX4032, 1 μM) alone or in combination with a MEK inhibitor (AZD6244, 0.1 μM) for 72 h and SLITRK6 mRNA was analyzed by RT-qPCR. Data shown are the means±standard deviation of 3 independent experiments. ** p<0.01; * p<0.05; t-test.

Test [1] has as its system SLITRK6. Briefly: Staining of A375 cells for SLITRK6: antibody binding at the membrane. The note with it: si-Ctl or si-SLITRK6, PLX4032 1 μM alone or with AZD6244 0.1 μM for 48 h. The method, then: FIG. 5. […] A375 cells were transfected with siRNA control (si-Ctl) or targeting SLITRK6 (si-SLITRK6) before treatment with PLX4032 (1 μM) alone or in combination with AZD6244 (0.1 μM) for 48 h. Cells were then stained for SLITRK6 (green) and DNA was counterstained with DAPI (blue).

Test [2] relates to SLITRK6. Description: Staining of A375 cells for SLITRK6: antibody internalization. Type of test: cell-based. The conditions noted are these: si-Ctl or si-SLITRK6, PLX4032 1 μM alone or with AZD6244 0.1 μM for 48 h. The protocol: FIG. 6. […] A375 cells were transfected with siRNA control (si-Ctl) or targeting SLITRK6 (si-SLITRK6) before treatment with PLX4032 (1 μM) alone or in combination with AZD6244 (0.1 μM) for 48 h. Cells were then stained for SLITRK6 (green) and DNA was counterstained with DAPI (blue).

Where [3] appears, read: listed as antibody against SLITRK6.

With `CCCS(=O)(=O)Nc1ccc(F)c(C(=O)c2c[nH]c3ncc(-c4ccc(Cl)cc4)cc23)c1F` [PLX4032], the “SLITRK6 mRNA expression (fold increase relative to the DMSO control)” value in the test on SLITRK6 mRNA is “induced”.

B1: Hal5-10acl2: antibody directed against SLITRK6, produced by CHO cell ATCC PTA-13102; VH SEQ ID NO: 1, VL SEQ ID NO: 2 (antibody, V domains shown)
VH: QVQLVESGGGVVQPGRSLRLSCAASGFTFSSYGMHWVRQAPGKGLEWVAVIWYDGSNQYYADSVKGRFTISRDNSKNTLFLQMHSLRAEDTAVYYCARGLTSGRYGMDVWGQGTTVTVSS
VL: DIVMTQSPLSLPVTPGEPASISCRSSQSLLLSHGFNYLDWYLQKPGQSPQLLIYLGSSRASGVPDRFSGSGSGTDFTLKISRVEAEDVGLYYCMQPLQIPWTFGQGTKVEIKR
modifications: Synthetic heavy chain variable region of Hal5-10acl2; Synthetic light chain variable region of Hal5-10acl2
On to B1, for which the “binding of the antibody to SLITRK6 at the cell membrane” value in the test on SLITRK6 [1] is “binds to melanoma cells only when the cells are treated with a MAMPK inhibitor”; in the test with SLITRK6 [1] (setting [3]), “binds its target specifically at the membrane only after MAPK inhibitor treatment”. In addition, the “internalization of the antibody and its target” value in the test on SLITRK6 [2] is listed as “internalizes the tumor cells only after a treatment with a MAPK inhibitor”; with SLITRK6 [2] (setting [3]) it was “internalizes its target specifically only after MAPKi treatment”.
